# Measured values taken from paper doi:10.1101/498428.
# Assays:
# Experiment in all cases: native gel or EMSA
# [1] = target: His-Halo-PRDM9^Cst ZnF1-11 (Mus musculus castaneus (CAST/EiJ strain))
# [2] = target: His-MBP-eYFP-PRDM9^Cst ZnF (Mus musculus castaneus (CAST/EiJ strain))
# [3] = target: His-MBP-eYFP-PRDM9^Dom2 ZnF (Mus musculus domesticus (C57BL/6J strain))
# [4] = target: His-PRDM9^Cst ZnF1-11 (Mus musculus castaneus (CAST/EiJ strain))
# [5] = target: His-PRDM9^Cst ZnF2-6 (Mus musculus castaneus (CAST/EiJ strain))
# [6] = target: His-PRDM9^Cst ZnF2-8 (Mus musculus castaneus (CAST/EiJ strain))
# [7] = target: His-PRDM9^Cst ZnF (Mus musculus castaneus (CAST/EiJ strain))
# [8] = target: His-eYFP-PRDM9^Cst (full-length PRDM9^Cst) (Mus musculus castaneus (CAST/EiJ strain))
# [9] = target: His-eYFP-PRDM9^Cst ZnF1-11 (Mus musculus castaneus (CAST/EiJ strain))
# [10] = target: His-eYFP-PRDM9^Cst ZnF2-11 (Mus musculus castaneus (CAST/EiJ strain))
# [11] = target: His-eYFP-PRDM9^Cst ZnF (Mus musculus castaneus (CAST/EiJ strain))
substance,measurement,setting,value
His-Halo-PRDM9^Cst ZnF1-11 (domain or fragment),stoichiometry N,[1],3
His-MBP-eYFP-PRDM9^Cst ZnF (domain or fragment),stoichiometry N,[2],3
His-MBP-eYFP-PRDM9^Dom2 ZnF (domain or fragment),stoichiometry N,[3],3
His-PRDM9^Cst ZnF1-11 (domain or fragment),stoichiometry N,[4],3
His-PRDM9^Cst ZnF2-6 (domain or fragment),stoichiometry N,[5],3
His-PRDM9^Cst ZnF2-8 (domain or fragment),stoichiometry N,[6],3
His-PRDM9^Cst ZnF (domain or fragment),stoichiometry N,[7],3
His-eYFP-PRDM9^Cst (full-length PRDM9^Cst) (natural protein),stoichiometry N,[8],3
His-eYFP-PRDM9^Cst ZnF1-11 (domain or fragment),stoichiometry N,[9],3
His-eYFP-PRDM9^Cst ZnF2-11 (domain or fragment),stoichiometry N,[10],3
His-eYFP-PRDM9^Cst ZnF (domain or fragment),stoichiometry N,[11],3
